Assay results as given in patent US20130095098A1 (UCB, published 2013).

B1: antibody CA051-00948 (948 murine parental; cloned recombinant antibody derived from hybridoma Clone 10) (antibody, IgG1, V domains shown)
VH: DVQLQESGPGLVKPSQSLSLTCTVTGYSITSDYAWNWIRQFPGNKLEWMGYINYSGSTSYNPSLKSRISITRDTSKNQFFLQLNSVTTEDTATYYCARWIGSSAWYFDVWGAGTTVTVS
VL: DVLMTQTPLSLPVSLGDQASISCRSGQNIVHSNGNTYLEWYLQKPGQSPKLLIYKVSNRFFGVPDRISGSGSGTDFTLKISRVEAEDLGVYFCFQGSHVPFTFGSGTKLEIK
notes: also called Ab948
B2: 948.g1 (948 humanised graft; gL1 light chain, g1 heavy chain, human gamma-4 S241P / human kappa) (antibody, human IgG4 S228P, kappa, V domains shown)
VH: EVQLQESGPGLVKPSQTLSLTCTVTGYSITSDYAWNWIRQPPGKKLEWMGYINYSGSTSYNPSLKSRVTISRDTSKNQFSLKLSSVTAADTAVYYCARWIGSSAWYFDVWGQGTLVTVSS
VL: DVLMTQTPLSLSVTPGQPASISCRSGQNIVHSNGNTYLEWYLQKPGQSPKLLIYKVSNRFFGVPDRISGSGSGTDFTLKISRVEAEDVGVYFCFQGSHVPFTFGQGTKLEIKR

Assays:
[1] = biological target: T1, human PD-1 (Programmed Death 1), full-length, expressed on transiently transfected HEK293 cells (human, UniProt Q15116 25-288); test: flow cytometry on HEK293 cells transiently transfected with human PD-1; rat anti-mouse IgG secondary
T1 construct: whole, on cells; also called CD279; PDCD1
Method: (§1) HEK293 cells were transiently transfected by culturing at 5×10⁶/well with 5 μg human PD-1 DNA and 293 fectin (Invitrogen) overnight in 6 well plates. […] Cells were washed with PBS and incubated with an appropriate secondary antibody, either FITC Mouse anti Human IgG (05-4211 Zymed, 1:20 dilution) or rat anti Mouse IgG (04-6111 Zymed, 1:20 dilution) for 1 hr at 4° C. Flow cytometry analysis was performed on a FACSCalibur (Becton Dickinson).

[2] = biological target: T1, human PD-1 (Programmed Death 1), …; test: flow cytometry on HEK293 cells transiently transfected with human PD-1; FITC mouse anti-human IgG secondary
Method: as §1

T1 sequence (Q15116 25-288): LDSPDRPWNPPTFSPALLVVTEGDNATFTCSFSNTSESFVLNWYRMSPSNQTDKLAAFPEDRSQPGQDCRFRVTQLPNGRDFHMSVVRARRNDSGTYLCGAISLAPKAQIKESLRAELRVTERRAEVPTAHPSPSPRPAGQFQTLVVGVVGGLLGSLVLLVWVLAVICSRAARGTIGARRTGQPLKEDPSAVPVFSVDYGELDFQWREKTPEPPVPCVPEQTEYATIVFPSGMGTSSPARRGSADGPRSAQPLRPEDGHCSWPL

Row | Binder | binding result [1] | binding result [2]
1 | B1 | binds | –
2 | B2 | – | binds
